Paper PMC3660254, “Control of Translation and miRNA-Dependent Repression by a Novel Poly(A) Binding Protein, hnRNP-Q”

Molecular target: T1, hnRNP-Q2 (SYNCRIP, hnRNP-Q isoform 2) (mouse (cDNA from Krebs-2 cells), UniProt Q7TMK9-2 1-562)
T1 sequence: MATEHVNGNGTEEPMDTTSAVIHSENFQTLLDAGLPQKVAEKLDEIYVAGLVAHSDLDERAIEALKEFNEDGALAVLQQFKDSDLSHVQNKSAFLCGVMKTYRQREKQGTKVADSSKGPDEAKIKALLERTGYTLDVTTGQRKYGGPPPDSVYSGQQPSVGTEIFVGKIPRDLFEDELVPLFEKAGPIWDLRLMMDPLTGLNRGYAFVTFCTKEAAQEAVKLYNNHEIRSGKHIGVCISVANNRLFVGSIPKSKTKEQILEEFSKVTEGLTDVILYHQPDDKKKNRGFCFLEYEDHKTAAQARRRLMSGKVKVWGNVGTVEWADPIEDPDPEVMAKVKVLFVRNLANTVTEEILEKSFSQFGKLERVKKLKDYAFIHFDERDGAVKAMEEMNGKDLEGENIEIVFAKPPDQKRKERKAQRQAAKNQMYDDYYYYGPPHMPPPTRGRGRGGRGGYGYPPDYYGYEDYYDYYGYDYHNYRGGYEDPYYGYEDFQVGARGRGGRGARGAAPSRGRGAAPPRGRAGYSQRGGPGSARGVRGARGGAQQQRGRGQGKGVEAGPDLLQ
Test: EMSA; apparent Kd, 2 mM Mg2+; three experiments; EMSA: 20 mM HEPES-KOH pH 7.3, ~100 mM KCl, 2 mM MgCl2, 1 mM DTT, 0.05% NP40, 5% glycerol, 0.1 mg/ml acetylated BSA (plus 2 ul protein in buffer A), 30 C 30 min, gel at 4 C; UV crosslinking in nuclease-treated RRL
Details: protein: recombinant; tags: C-terminal His6 (pET28a); label: 5' 32P; single strand

B1: oligo(A)30 (ssRNA)
RNA: AAAAAAAAAAAAAAAAAAAAAAAAAAAAAA
Kd: ~30 nM
